Reference: PMC11908141 (bioRxiv, 2025)

Molecular target: the molecule itself
Assay: cryo-EM structure

B1: enolase, native, Francisella novicida (enzyme)
chain: MSSQIKQVFARQILDSRGNPTVEVDVVLESGAFGRAAVPSGASTGIREALELRDGNKALFLGKSVYKAVENVNTKIAQAVKGLDALDQRLIDKTMIELDGSENKKNLGANAILGVSLATARAAASHLRKPFYRYLMDVKEYLMPVPMMNVINGGSHADNNVDMQEFMIVPAGFDTFSEALRCGTEVFHTLKKVLIADGYSVAGVGDEGGYAPDLPSNEAAIEAILKAVKEAGYEPGKHVFIALDPASSEFYKDGKYELKSENKSLTSEEMIDYYAAWVEKYPIVSIEDGLAEEDWAGWKLLTEKLGNKVQLVGDDLFVTNPSILAKGIEKGIANSILIKLNQIGTLTETFEAMAMAGQAGYTCVVSHRSGETSDTIIADLAVATCSGQIKTGSLSRSDRIAKYNQLLRIEEELGENAIYPGIKAFVFNSDEEVEEDVQEIIVEDSEAEKVVVQVEE
stoichiometry N: 2
